# Laboratory results published in the RNAGym collection of RNA variant scans (doi:10.7554/elife.80360).
# B1: CPEB3 Ribozyme (parent)
# chain: GGGGGCCACAGCAGAAGCGUUCACGUCGCGGCCCCUGUCAGAUUCUGGUGAAUCUGCGAAUUCUGCUGU
# Variants of: B1
# Assay: self-cleavage, relative activity (ratio to wild type); higher = more cleavage; co-transcriptional
row,Variant,self-cleavage
1,G14C G50U,0.618
2,G14C G56C,0.24
3,G14C G56U,0.236
4,G14C G58A,0.505
5,G14C G65A,0.291
6,G14C G65C,0.231
7,G14C G68A,0.704
8,G14C G68C,0.607
9,G14C G68U,0.64
10,G14C U20A,0.102
11,G14C U20C,0.116
12,G14C U21A,0.477
13,G14C U21C,0.286
14,G14C U21G,0.11
15,G14C U26C,0.327
16,G14C U26G,0.256
17,G14C U36A,0.109
18,G14C U36C,0.37
19,G14C U36G,0.19
20,G14C U38G,0.157
21,G14C U43G,0.246
22,G14C U44A,0.392
23,G14C U44G,0.39
24,G14C U46A,0.651

row,Variant,self-cleavage
1,G14C U46C,0.48
2,G14C U46G,0.599
3,G14C U49A,0.712
4,G14C U49G,0.689
5,G14C U53G,0.397
6,G14C U55A,0.22
7,G14C U55C,0.271
8,G14C U61A,0.346
9,G14C U61G,0.266
10,G14C U62A,0.394
11,G14C U62C,0.352
12,G14C U62G,0.368
13,G14C U64A,0.432
14,G14C U64C,0.283
15,G14C U64G,0.546
16,G14C U67A,0.468
17,G14C U67C,0.443
18,G14C U67G,0.549
19,G14C U69C,0.968
20,G14C U69G,0.726
21,G14U A15G,0.843
22,G14U A16C,0.123
23,G14U A16U,0.363
24,G14U A23C,0.7

row,Variant,self-cleavage
1,G14U A23G,0.452
2,G14U A23U,0.986
3,G14U A40G,0.425
4,G14U A40U,0.179
5,G14U A42C,0.523
6,G14U A42U,0.425
7,G14U A51C,0.61
8,G14U A51G,0.842
9,G14U A52C,0.715
10,G14U A52U,0.767
11,G14U A59U,0.365
12,G14U A60G,0.4
13,G14U C18A,0.142
14,G14U C18G,0.0825
15,G14U C18U,0.225
16,G14U C22A,0.15
17,G14U C22U,0.15
18,G14U C24G,0.109
19,G14U C24U,0.137
20,G14U C27U,0.15
21,G14U C29A,0.19
22,G14U C29G,0.167
23,G14U C29U,0.111
24,G14U C32A,0.333

row,Variant,self-cleavage
1,G14U C32U,0.816
2,G14U C33A,0.522
3,G14U C33U,0.79
4,G14U C34A,0.526
5,G14U C34G,0.347
6,G14U C34U,0.833
7,G14U C35G,0.309
8,G14U C35U,0.601
9,G14U C39G,0.373
10,G14U C39U,0.394
11,G14U C45A,0.665
12,G14U C45G,0.62
13,G14U C45U,0.721
14,G14U C54A,0.266
15,G14U C54G,0.363
16,G14U C54U,0.734
17,G14U C57A,0.216
18,G14U C57G,0.246
19,G14U C57U,0.351
20,G14U C63A,0.994
21,G14U C63G,0.994
22,G14U C63U,0.893
23,G14U C66A,0.374
24,G14U C66G,0.325

row,Variant,self-cleavage
1,G14U G17A,0.145
2,G14U G17U,0.161
3,G14U G19A,0.148
4,G14U G25A,0.141
5,G14U G25C,0.204
6,G14U G25U,0.124
7,G14U G28U,0.164
8,G14U G30A,0.288
9,G14U G30C,0.187
10,G14U G30U,0.155
11,G14U G31A,0.305
12,G14U G31C,0.163
13,G14U G31U,0.164
14,G14U G37C,0.129
15,G14U G37U,0.129
16,G14U G41C,0.245
17,G14U G47A,0.836
18,G14U G47C,0.877
19,G14U G47U,0.857
20,G14U G48A,0.893
21,G14U G50A,0.812
22,G14U G50C,0.616
23,G14U G50U,0.815
24,G14U G56C,0.292

row,Variant,self-cleavage
1,G14U G56U,0.309
2,G14U G58A,0.679
3,G14U G58C,0.72
4,G14U G65A,0.32
5,G14U G65C,0.384
6,G14U G65U,0.334
7,G14U G68U,0.816
8,G14U U20A,0.121
9,G14U U20G,0.137
10,G14U U21A,0.733
11,G14U U21C,0.379
12,G14U U26A,0.555
13,G14U U26G,0.559
14,G14U U36A,0.18
15,G14U U38A,0.566
16,G14U U38C,0.573
17,G14U U38G,0.111
18,G14U U43C,0.472
19,G14U U43G,0.278
20,G14U U44C,0.325
21,G14U U46A,0.862
22,G14U U46C,0.758
23,G14U U49C,0.678
24,G14U U49G,0.867

row,Variant,self-cleavage
1,G14U U53A,0.356
2,G14U U53C,0.33
3,G14U U53G,0.439
4,G14U U55C,0.345
5,G14U U55G,0.268
6,G14U U61C,0.367
7,G14U U61G,0.432
8,G14U U62C,0.364
9,G14U U62G,0.513
10,G14U U64A,0.458
11,G14U U64C,0.401
12,G14U U64G,0.481
13,G14U U67C,0.55
14,G14U U67G,0.77
15,A15C,0.923
16,A15C A16C,0.111
17,A15C A16G,0.142
18,A15C A16U,0.49
19,A15C A40C,0.137
20,A15C A40G,0.626
21,A15C A42C,0.602
22,A15C A42G,0.678
23,A15C A42U,0.618
